Laboratory results: the DeepSol protein solubility set

Assay: soluble on expression in E. coli; label from the status in PepcDB or PDB records

| Sequence | soluble on expression in E. coli |
| --- | --- |
| MGSDKIHHHHHHMTAVKHAFTELPTIDIRDLAGDDLARRQAVADAIGRAAREVGFFYITGHGIDPALIAGVREAAKQIFALPMEEKMNYYIGHSKSHKGYVPEGEEIYGSGKPDHKEAFDIGFQAADDHPLVLAGTPLIGANEWPDLPDFRARVLAYYDAVFALGHRLFDAFALALGLPEGYFKPMVTCPPAKLRLIHYPFDASVEDVPGIGAHTDYECFTLLLADQPGLEVLNEESVWIDAPPVKNAAGEEAFVINIGDMLEVLSAGTFVATAHRVRKVPQERYSFPLFFACDYHTLIRPLPTFLAAGEAGEYQELSIGEHMWSQALQTYRYLREKVNRGELQLPERARGTNTFGHLKKQAQQKNP | not soluble |
| MNLTNYHSHTLYCDGRAGMEDFIRFAISRGFTSYGISSHAPLPFPTHWTMEWDRMDDYLDEFTRMKEKYASEIELAVGLEIDYLNEDSNPSVRRFQELPLDYRIGSVHLLYNDRDEVVDIDVCAEVFRDIVDQHFGGDLDRVIHLYYDRLLRMVELGGFDILGHADKMHHNAACYRPGLLDESWYDALIHDYFSAVAAKGYIVEINTKALHHLNTFFPNERYFPLLKELGVRVQVNSDSHYPERINSGRPEALAALQKAGFETVTEWHGGKWIEMPL | not soluble |
| SSPFLYLVLLVLGLHATIHCASPEGKVTACHSSQPNATLYKMSSINADFAFNLYRRFTVETPDKNIFFSPVSISAALVMLSFGACCSTQTEIVETLGFNLTDTPMVEIQHGFQHLICSLNFPKKELELQIGNALFIGKHLKPLAKFLNDVKTLYETEVFSTDFSNISAAKQEINSHVEMQTKGKVVGLIQDLKPNTIMVLVNYIHFKAQWANPFDPSKTEDSSSFLIDKTTTVQVPMMHQMEQYYHLVDMELNCTVLQMDYSKNALALFVLPKEGQMESVEAAMSSKTLKKWNRLLQKGWVDLFVPKFSISATYDLGATLLKMGIQHAYSENADFSGLTEDNGLKLSNAAHKAVLHIGEKGTEAAAVPEVELSDQPENTFLHPIIQIDRSFMLLILERSTRSILFLGKVVNPTEA | not soluble |
| MGSDKIHHHHHHMFFIRVDSNQTISGGHIMRCLAIAKALIINGKDVTFLIADDNPVEVLKQNRVSYVILNSDWQDLMSDLEQTIKVLSQENDPYLLIDTYCITKEYVEGLKAYAKVGYLGSKSEYLGNLDFLINYSSYIDYNYYKNNYFNGTKLLLGISYAPLRDEFQNQEPHYREQVRNILITTGNTDNDGMVGLLLDRLRYLLKEKNIIANVIIGRMFNNKELLHVKYDDNSNVKLYENVSSMSTIMRNCDLAISANGTTIYELSAMAIPTISFAMVEEQVKSAEGLDALRVIDYCGTSYTDVNKCVKAIIDKALYYIENYDNRIRLAQNAHNLIDGNGCQKIIDELF | not soluble |
| ATTLYLTRHGETKWNVERRMQGWQDSPLTEKGRQDAMRLGKRLEAVELAAIYTSTSGRALETAEIVRGGRLIPIYQDERLREIHLGDWEGKTHDEIRQMDPIAFDHFWQAPHLYAPQRGERFCDVQQRALEAVQSIVDRHEGETVLIVTHGVVLKTLMAAFKDTPLDHLWSPPYMYGTSVTIIEVDGGTFHVAVEGDVSHIEEVKEV | soluble |
| MSLSMSTIAKVAARAGVSPTTVSHVINHSDRVSKPLRERVEAAIKDLGYKPNPQAQSLRTGRTNIVAMLIPDIRNPFYPELVKAAQSELEVAGLDMLIFNTDVPGGQSQDHGREYLRQIGNKRVDGLIVGDFALHGMHDALMRVETPTVFIGNLPNHAVDCVRIDDFGGGYQMGAYLAGKGHRRIAHVTGPSFFAEAMSRADGFEQGLADHGATPDPGLRFEGSYLAPSGKAAAEWLLAGHGGDLPSAVFFGNYLMAAGALAEFYDRGIRIPDDFKVAVFGDQPQLEYVRPRLTRVGNAPAELARRATRMLLERINGTYEGEPRSEVVSCVLREFETEGHHHHHH | soluble |
| GRTVVVTTIMESPYVMYKKNHEMFEGNDKYEGYCVDLASEIAKHIGIKYKIAIVPDGKYGARDADTKIWNGMVGELVYGKAEIAIAPLTITLVREEVIDFSKPFMSLGISIMIKKGTPIESAEDLAKQTEIAYGTLDSGSTKEFFRRSKIAVYEKMWTYMRSAEPSVFTRTTAEGVARVRKSKGKFAFLLESTMNEYIEQRKPCDTMKVGGNLDSKGYGVATPKGSSLRTPVNLAVLKLSEAGVLDKLKNKWWYDKGECG | soluble |
| MMAFAPPKNTDGPKMQTKMSTWTPLNHQLLNDRVFEERRALLGKWFDKWTDSQRRRILTGLLERCSLSQQKFCCRKLQEKIPAEALDFTTKLPRVLSLYIFSFLDPRSLCRCAQVCWHWKNLAELDQLWMLKCLRFNWYINFSPTPFEQGIWKKHYIQMVKELHITKPKTPPKDGFVIADVQLVTSNSPEEKQSPLSAFRSSSSLRKKNNSGEKALPPWRSSDKHPTDIIRFNYLDNRDPMETVQQGRRKRNQMTPDFSRQSHDKKNKLQDRTRLRKAQSMMSRRNPFPLCP | not soluble |
| MNSVITQKVSSGVTLYADTKTGGFMNRTILVPIDISDSELTQRVISHVEAEAKIDDAEVHFLTVIPSLPYYASLGLAYSAELPAMDDLKAEAKSQLEEIIKKFKLPTDRVHVHVEEGSPKDRILELAKKIPAHMIIIASHRPDITTYLLGSNAAAVVRHAECSVLVVR | not soluble |
| MTIYNINFGIGWASSGVEYAQAYRAKLLRRTNQDTKFVFLDFIQSENIQTLTQNIGFKDQEVIWLYQYFSDISLAPTTYTLDDIERELGHDISFRERNGKIVRLYFNGKSSFVTCYLQNEQKDIVDRAEFVINSMLVRKDFYSYTRIFSEYYAPADNKAKLYMRQFYNQDGSIAYNEYIDGDSSIYVFEDAVLYNKTEFIAYFLQRLNLTRDDIVILDRASDIGQAVLQHKGDSKVGVVIHADHYSNNMMSEQHILWNNYYEYQFSKAKYIDFFITATDIQNHMVCRQFEQYQGYRPRVYTIPVGSIDALSYPTLSRKPYAMISASRLANEKHIDWLVKAVIVAKRQVPELTFDIYGEGSEKTRLRKIIDTHRAQDYIRLLGHVKLDEIYNDYELFLSASTSEGFGLTLMEAVGSGLGMIGLNVNYGNPTFIRDGENGYLVPFDTDEDSVDDVIAKLAHAIVMYFNNGPQTPHDISYEVAQQFMTQDIILKWETLVQEVLHD | not soluble |
| MQSITPPLIAVIGSDASGKSTVCEHLITVVEKYGAAERVHLGKQAGNVGRAVTKLPLMGKSLHKTIERNQVKTAKKLPGPVPALVITAFVARRLLRFRHMLACRRRGLIVLTDRYPQDQIPGAYDGTVFPPNVEGGRFVSWLASQERKAFHWMASHKPDLVIKLNVDLEVACARKPDHKRESLARKIAITPQLTFGGAQLVDIDANQPLEQVLVDAEKAITDFMTARGYH | not soluble |
| MRIVAVTDIHGNMASTVALANILKKIEAELLLIAGDITHFSGGEIAKQILEPLLKLGVRVLAVMGNCDGKDVPKVLDELGINVHNARVEVKKVGVVGFGGSSVTPFSTIWEFSEEEIYSSLKRNYRSGDIVLTHAPPYRTRIDKTFSGIHAGSKGLRKFIEEEQPPICICGHIHEARGIDKIGETLVVNPGPLSRRYYAVIDSETWEVKLERLLEHHHHHH | soluble |
| MSLIDILVVDDDVAVCAALRLVLKRAGYNPVIANSPDEALSIMRNPDGGCKPAVILMDMNFSLSTSGREGLELLEKMQIFTSCPVILMTAWASIPLAVEGMRLGAFDFIGKPWDNDRLLRTIDTALHLAAPSAVANPSEQSDRDTARQPKATVQENDPCAHIIGRSDAICKIKERIRRIAPTHASVLITGESGTGKELIAEALHRGSKRASAPFVKVNLGGIPESLFESELFGHKKGAFTNAFSDRKGRFELADGGTIFLDEIGELPVGNQVKLLRVLQEQTFEPLGESVSHRVDIRVVSATNASLERMVAEGRFREDLYYRINLIHLHLPPLRERQEDIQLLVEAFSEAFAQSNGLPHAVWSAEAMRRICAMPLPGNVRELKNVVERTLLLSGSREISARDVADEGHHHHHH | soluble |
| GPGSMSVSATPYKRQDAITAKTVLLGESAVGKSSIALRFARNEFSSNQETTIGAAFLSRSVTVSATSQSGGGGAVANAASGTIKFEIWDTAGQERYRSLAPIYYRGACGALVVYDITSAESLKKAQMWMRELRANADPTLLIILVGNKKDMESLRQVSYEDGAAVAQEEDVNGFFEVSAKENVNVEEVFAKLARLLLEHGLGANSGPGSLSGPRGAQRLEPPTRQQKKEGGCAC | not soluble |
| MGSDKIHHHHHHMKNFVTSERSIFEMEKSTEPAIRVKDGSVVKIKTKDHFNGQIHAKQLHYGELDWKQFSPTTGPIYIEEARPGDLLAITIEKIELLGTEVFLLNGPNIGITDDLLTSNSTRCYKVENNQIIYSEDIHIPIRKTIGLLKTEELNPSKVPTKNGGLLDSSKITEGATIFLPVEKYGASLHVGNVRATTGFGKITATSAEAPAEVTLRLQILKNRTAPTPTIIHYHNLICLASDITIEKATQKTMHNMITLLTESDKMTTEDALFLISLQADFQVCKLCKPNITTSIKLPLDYFPEMPFL | not soluble |
| MDSEKIKIFTRNYKGSLIMSKRSPKSVSEKLEIVLLRLEEGKSLSWLTRNQGISKDTLSNWVRKYKEAGVDGLEESRQWKKYSKELKEQAVSDYLNGLGSLKDLTKKYGISDPYVLRSWIKSYTSGKELKATSKGMRRMKQGRKTTFEERIEIVNFTLAHEKDYQGAVEKYGVSYQQIYSWVRKFEKDGSNGLLDRRGKGLTSKPNLTPEEELRLKIKQQEERIKYLEMENGLLKKLEEIKRRNRRLEHHHHHH | soluble |
| MGSDKIHHHHHHMKILFGPVSSRRFGRSLGIDLSPSKKQCNFDCVYCELDPKKAQEKQDEIISIDKIISEVKAMLEKNVEFDFLTLTANGEPSLYPYLNELILSLRSIAKDKKLLILSNGTAVLDEDKFNALLKLDVVKFSLDSAVAKTFYRIDRALKNIDLEKMIEKMADFRARFNGDLIMEILVVKDLNDNEEEFEALNQALKKIMPLRVDLSTIDRPPAYAVKKVSEEKLLELSKLIDSTPVLLAKRHYEGEKLSFNEEELLKMLHLRSQSEIDIEVKFDEQSKTLLNQLIKEKKVKILDLAGVKFYKV | not soluble |
| SVGTTSVVKNSHEEVVQTLANSLFPAQFMNGNIHIPVAVQAVAGTYQNTAQTVHIWDPQQQPQQQTPQEQTPPPQQQQQQLQVTCSAQTVQVAEVEPQSQPQPSPELLLPNSLKPEEGLEVWKNWAQTKNAELEKDAQNRLAPIGRRQLLRFQEDLISSAVAELNYGLCLMTREARNGEGEPYDPDVLYYIFLCIQKYLFENGRVDDIFSDLYYVRFTEWLHEVLKDVQPRVTPLGYVLPSHVTEEMLWECKQLGAHSPSTLLTTLMFFNTKYFLLKTVDQHMKLAFSKVLRQTKKNPSNPKDKSTSIRYLKALGIHQTGQKVTDDMYAEQTENPENPLRCPIKLYDFYLFKCPQSVKGRNDTFYLTPEPVVAPNSPIWYSVQPISREQMGQMLTRILVIREIQEAIAVANASTMH | soluble |
| MSLKPEKPSDTELVFISNAETIRDYLLRLSVDELKLLAKYILQNVYIVFVQTDDFASSFRLFNVLNSRGLPLSNADLLKNALFESASTHNKKSEQIESAWSQIEDMVGVRRLDKFLTLHKLSEKKDRDRVLQKGFEAFIENLQQQFDGDAIAMSLMLVNSAKNYTKILENDFEHPSIRRKIASLSNLGVDEWIPPVMAFMNRMARTEDFNLDDFSQFITAFEKVYMHGWLKKQIKSQREMVCYSALVAINNDMPFDSVINQINQHADNSGFIAALDEDLYEPRPNQVNLIKAILLRLDMEQQDESVIKTYTGRITIEHILPQALVNEYWINRFQPQEHVYWLHKIGNLTLISGSKNSEAQHYDFIKKKSIYEKLNSKSSFDLTKDVCNSSEWGLAELKMRHEKMKTQLKKLWLVEGHHHHHH | not soluble |
